Test results: PMC8716136

Target: CaMKIIδC-GFP T287A (phosphoresistant) (R. norvegicus)
Assay: FRET or BRET

donor fluorescence (FDD) after 5 uM unlabeled CaM, % of initial intensity: 80%
Substance: unlabeled CaM (calmodulin) (from UniProt P0DP23 1-149) (natural protein)
